Residue numbers refer to the chain shown, from its start. In names and notes the source's numbering stands. Several values for one entry are separate records, joined by “and”; a condition that tells them apart may be missing. Identical values can stand only once.
B1: Mutant F476G: Bacillus subtilis str. 168 pullulanase with phenylalanine at position 476 mutated into glycine (protein, UniProt C0SPA0 1-718, looked up, variant F476G)
Pullulanase: MVSIRRSFEAYVDDMNIITVLIPAEQKEIMTPPFRLETEITDFPLAVREEYSLEAKYKYVCVSDHPVTFGKIHCVRASSGHKTDLQIGAVIRTAAFDDEFYYDGELGAVYTADHTVFKVWAPAATSAAVKLSHPNKSGRTFQMTRLEKGVYAVTVTGDLHGYEYLFCICNNSEWMETVDQYAKAVTVNGEKGVVLRPDQMKWTAPLKPFSHPVDAVIYETHLRDFSIHENSGMINKGKYLALTETDTQTANGSSSGLAYVKELGVTHVELLPVNDFAGVDEEKPLDAYNWGYNPLHFFAPEGSYASNPHDPQTRKTELKQMINTLHQHGLRVILDVVFNHVYKRENSPFEKTVPGYFFRHDECGMPSNGTGVGNDIASERRMARKFIADCVVYWLEEYNVDGFRFDLLGILDIDTVLYMKEKATKAKPGILLFGEGWDLATPLPHEQKAALANAPRMPGIGFFNDMFRDAVKGNTGHLKATGFALGNGESAQAVMHGIAGSSGWKALAPIVPEPSQSINYVESHDNHTFWDKMSFALPQENDSRKRSRQRLAAAIILLAQGVPFIHSGQEFFRTKQGVENSYQSSDSINQLDWDRRETFKEDVHYIRRLISLRKAHPAFRLRSAADIQRHLECLTLKEHLIAYRLYDLDEVDEWKDIIVIHHASPDSVEWRLPNDIPYRLLCDPSGFQEDPTEIKKTVAVNGIGTVILYLASDLKSFA
B2: Wild enzyme: wild type pullulanase derived from Bacillus subtilis str. 168 (PDB:2E8Z, NCBI CAB14971.2, SEQ ID NO:2) (protein, listed as Bacillus subtilis)
chain: B1 Pullulanase with G476F
B3: Mutant F476D: Bacillus subtilis str. 168 pullulanase with phenylalanine at position 476 mutated into aspartic acid (protein, UniProt C0SPA0 1-718, looked up, variant F476D)
Pullulanase: B1 Pullulanase with G476D
B4: Mutant F476I: Bacillus subtilis str. 168 pullulanase mutated at position 476 (F to I) (protein, UniProt C0SPA0 1-718, looked up, variant F476I)
Pullulanase: B1 Pullulanase with G476I
B5: Mutant F476M: Bacillus subtilis str. 168 pullulanase mutated at position 476 (F to M) (protein, UniProt C0SPA0 1-718, looked up, variant F476M)
Pullulanase: B1 Pullulanase with G476M
B6: Mutant F476V: Bacillus subtilis str. 168 pullulanase mutated at position 476 (F to V) (protein, UniProt C0SPA0 1-718, looked up, variant F476V)
Pullulanase: B1 Pullulanase with G476V

system: pullulanase derived from Bacillus subtilis str. 168; experiment: Inhibitory effect of cyclodextrin on pullulanase enzyme activity (DNS method, pullulan substrate); assay type: biochemical; conditions: Bacillus subtilis str. 168 pullulanase; inhibitor α-CD (0.1 mL of 10 mM cyclodextrin); 1% pullulan pH 6.0, 40° C., 30 min
Text: 2. Measurement of Enzyme Activity of the Pullulanase:
A 3,5-dinitrosalicylic acid (DNS) method is adopted. The pullulanase catalyzes the hydrolysis of pullulan to produce reducing sugar under certain conditions, 3,5-dinitrosalicylic acid and the reducing sugar are reduced under thermal conditions to produce a brown-red amino complex, the color depth is directly proportional to the amount of the reducing sugar within a certain range, and the measurement can be performed at the wavelength of 540 nm so as to calculate the enzyme activity. Enzyme activity unit definition: the amount of the enzyme that catalyzes the production of the reducing sugar equivalent to 1 μmol of glucose reducing power per minute is defined as one activity unit.
3. Measurement of the Enzyme Activity Comprises the Following Steps:
A. preheating: putting 1 mL of a 1% pullulan solution of which the pH value is 6.0 and 0.1 mL of a buffer solution of which the pH value is 6.0 in a centrifuge tube, and performing thermal insulation for 10 min on a water bath of 40° C.;
B. reaction: adding 0.1 mL (10 U) of an enzyme solution, performing shaking and mixing uniformly, performing accurate timing for 30 min, adding 1.5 mL of DNS for stopping reaction, performing treatment in a boiling water bath for 10 min, and performing instant cooling; and
C. measurement: measuring the light absorption value under the condition of 540 nm, and calculating the activity.
Reduction of the Inhibitory Effect of Enzyme Activity Characterization:
A. preheating: putting 1 mL of the 1% pullulan solution of which the pH value is 6.0 and 0.1 mL of 10 mM cyclodextrin in the centrifuge tube, and performing thermal insulation for 10 min on the water bath of 40° C.;
B. reaction: adding 0.1 mL (10 U) of the enzyme solution, performing shaking and mixing uniformly, performing accurate timing for 30 min, adding 1.5 mL of DNS for stopping reaction, performing treatment in the boiling water bath for 10 min, and performing instant cooling; and […]

| Molecule | Reduction rate of specific enzyme activity in existence of α-CD [%] |
| --- | --- |
| B1 | 10.6 |
| B2 | 14.3 |
| B3 | 5.6 |
| B4 | 8.2 |
| B5 | 6.5 |
| B6 | 7.2 |

same assay, conditions: Bacillus subtilis str. 168 pullulanase; inhibitor α-CD (0.1 mL of 10 mM cyclodextrin); 1% pullulan pH 6.0, 40° C., 30 min; listed as wild type pure enzyme

| Molecule | Reduction rate of specific enzyme activity in existence of α-CD [%] |
| --- | --- |
| B2 | 14.3 |

same assay, conditions: Bacillus subtilis str. 168 pullulanase; inhibitor β-CD (0.1 mL of 10 mM cyclodextrin); 1% pullulan pH 6.0, 40° C., 30 min

| Molecule | Reduction rate of specific enzyme activity in existence of β-CD [%] |
| --- | --- |
| B1 | 17.1 |
| B2 | 42.8 |
| B3 | 11.1 |
| B4 | 21.7 |
| B5 | 20.6 |
| B6 | 16.7 |

same assay, conditions: Bacillus subtilis str. 168 pullulanase; inhibitor β-CD (0.1 mL of 10 mM cyclodextrin); 1% pullulan pH 6.0, 40° C., 30 min; listed as wild type pure enzyme

| Molecule | Reduction rate of specific enzyme activity in existence of β-CD [%] |
| --- | --- |
| B2 | 42.8 |

same assay, conditions: Bacillus subtilis str. 168 pullulanase; inhibitor γ-CD (0.1 mL of 10 mM cyclodextrin); 1% pullulan pH 6.0, 40° C., 30 min

| Molecule | Reduction rate of specific enzyme activity in existence of γ-CD [%] |
| --- | --- |
| B1 | 17.6 |
| B2 | 17.1 |
| B3 | 11.0 |
| B4 | 15.2 |
| B5 | 16.1 |
| B6 | 12.3 |

same assay, conditions: Bacillus subtilis str. 168 pullulanase; inhibitor γ-CD (0.1 mL of 10 mM cyclodextrin); 1% pullulan pH 6.0, 40° C., 30 min; listed as wild type pure enzyme

| Molecule | Reduction rate of specific enzyme activity in existence of γ-CD |
| --- | --- |
| B2 | 7.1% and 17.1% |

same assay, conditions: α-CD, β-CD and γ-CD; comparison of mutant with wild type pure enzyme

| Molecule | Inhibitory effects of three cyclodextrins on the pullulanase mutant compared with the wild type pullulanase |
| --- | --- |
| B1 | significantly lower than that of the wild type pullulanase |
| B3 | significantly lower than that of the wild type pullulanase |

— patent US11142752B2, “Pullulanase mutant” (Jiangnan University, priority 2018, dated 2021)
